The source of these data is IntAct's records for PubMed 19556969.

First the molecules themselves.
B1: Regulator of nonsense transcripts 2 (Homo sapiens), Q9HAU5 (parent)
chain: MPAERKKPASMEEKDSLPNNKEKDCSERRTVSSKERPKDDIKLTAKKEVSKAPEDKKKRLEDDKRKKEDKERKKKDEEKVKAEEESKKKEEEEKKKHQEEERKKQEEQAKRQQEEEAAAQMKEKEESIQLHQEAWERHHLRKELRSKNQNAPDSRPEENFFSRLDSSLKKNTAFVKKLKTITEQQRDSLSHDFNGLNLSKYIAEAVASIVEAKLKISDVNCAVHLCSLFHQRYADFAPSLLQVWKKHFEARKEEKTPNITKLRTDLRFIAELTIVGIFTDKEGLSLIYEQLKNIINADRESHTHVSVVISFCRHCGDDIAGLVPRKVKSAAEKFNLSFPPSEIISPEKQQPFQNLLKEYFTSLTKHLKRDHRELQNTERQNRRILHSKGELSEDRHKQYEEFAMSYQKLLANSQSLADLLDENMPDLPQDKPTPEEHGPGIDIFTPGKPGEYDLEGGIWEDEDARNFYENLIDLKAFVPAILFKDNEKSCQNKESNKDDTKEAKESKENKEVSSPDDLELELENLEINDDTLELEGGDEAEDLTKKLLDEQEQEDEEASTGSHLKLIVDAFLQQLPNCVNRDLIDKAAMDFCMNMNTKANRKKLVRALFIVPRQRLDLLPFYARLVATLHPCMSDVAEDLCSMLRGDFRFHVRKKDQINIETKNKTVRFIGELTKFKMFTKNDTLHCLKMLLSDFSHHHIEMACTLLETCGRFLFRSPESHLRTSVLLEQMMRKKQAMHLDARYVTMVENAYYYCNPPPAEKTVKKKRPPLQEYVRKLLYKDLSKVTTEKVLRQMRKLPWQDQEVKDYVICCMINIWNVKYNSIHCVANLLAGLVLYQEDVGIHVVDGVLEDIRLGMEVNQPKFNQRRISSAKFLGELYNYRMVESAVIFRTLYSFTSFGVNPDGSPSSLDPPEHLFRIRLVCTILDTCGQYFDRGSSKRKLDCFLVYFQRYVWWKKSLEVWTKDHPFPIDIDYMISDTLELLRPKIKLCNSLEESIRQVQDLEREFLIKLGLVNDKDSKDSMTEGENLEEDEEEEEGGAETEEQSGNESEVNEPEEEEGSDNDDDEGEEEEEENTDYLTDSNKENETDEENTEVMIKGGGLKHVPCVEDEDFIQALDKMMLENLQQRSGESVKVHQLDVAIPLHLKSQLRKGPPLGGGEGEAESADTMPFVMLTRKGNKQQFKILNVPMSSQLAANHWNQQQAEQEERMRMKKLTLDINERQEQEDYQEMLQSLAQRPAPANTNRERRPRYQHPKGAPNADLIFKTGGRRR
partner: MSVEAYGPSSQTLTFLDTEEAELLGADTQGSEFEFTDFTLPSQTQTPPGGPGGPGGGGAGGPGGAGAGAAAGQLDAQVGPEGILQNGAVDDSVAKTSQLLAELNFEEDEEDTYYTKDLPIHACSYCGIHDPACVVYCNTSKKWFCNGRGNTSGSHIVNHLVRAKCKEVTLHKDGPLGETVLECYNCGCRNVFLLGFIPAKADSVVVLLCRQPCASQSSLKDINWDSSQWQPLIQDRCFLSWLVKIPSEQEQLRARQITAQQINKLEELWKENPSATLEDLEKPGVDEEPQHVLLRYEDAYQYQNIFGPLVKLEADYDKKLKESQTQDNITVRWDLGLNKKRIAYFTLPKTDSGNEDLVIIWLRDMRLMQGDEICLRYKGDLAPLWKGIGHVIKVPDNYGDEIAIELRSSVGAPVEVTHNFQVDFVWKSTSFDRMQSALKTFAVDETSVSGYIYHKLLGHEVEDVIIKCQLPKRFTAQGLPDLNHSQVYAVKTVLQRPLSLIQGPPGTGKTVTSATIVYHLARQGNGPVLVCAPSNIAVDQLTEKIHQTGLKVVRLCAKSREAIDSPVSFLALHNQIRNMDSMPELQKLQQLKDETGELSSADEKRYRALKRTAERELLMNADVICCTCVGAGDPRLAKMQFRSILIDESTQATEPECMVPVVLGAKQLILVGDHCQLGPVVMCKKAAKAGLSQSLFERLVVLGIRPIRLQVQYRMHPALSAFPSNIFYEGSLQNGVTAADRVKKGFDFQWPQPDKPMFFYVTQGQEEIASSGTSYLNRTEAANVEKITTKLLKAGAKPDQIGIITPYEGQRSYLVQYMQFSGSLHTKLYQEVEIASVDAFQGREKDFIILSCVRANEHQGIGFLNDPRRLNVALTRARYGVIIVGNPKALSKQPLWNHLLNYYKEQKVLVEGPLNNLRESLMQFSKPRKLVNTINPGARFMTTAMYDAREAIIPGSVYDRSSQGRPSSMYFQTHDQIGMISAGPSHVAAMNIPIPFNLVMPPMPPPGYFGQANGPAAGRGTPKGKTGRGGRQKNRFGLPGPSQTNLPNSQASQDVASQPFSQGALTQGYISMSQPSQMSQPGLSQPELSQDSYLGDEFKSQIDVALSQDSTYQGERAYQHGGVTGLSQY

The variants in the first test derive from B1. The following applies: with rent1_human UPF1, Q92900.
For the variant M1173E, the “effect of a mutation on the interaction” value is “disrupting interaction”.

The variants in a further test derive from B1. The following applies: with rent1_human UPF1, Q92900. This is another data set of the same source.
M1121E: the “effect of a mutation on the interaction” value is “decreasing interaction”.

Another test covers variants of B1. The following applies: with rent1_human UPF1, Q92900. The source holds these as a separate data set.
Turning to M1169E, the “effect of a mutation on the interaction” value is “decreasing interaction”.

In a further test the parent is B1. The following applies: with rent1_human UPF1, Q92900. The source holds these as a separate data set.
Take F1171E: the “effect of a mutation on the interaction” value is reported as “disrupting interaction”.

In the next test the parent is B1. The following applies: with rent1_human UPF1, Q92900. The source holds these as a separate data set.
In the case of F1113E, the “effect of a mutation on the interaction” value was “disrupting interaction”.

The variants in the next test derive from B1. The note with it: with rent1_human UPF1, Q92900. The source holds these as a separate data set.
Consider L1174E, for which the “effect of a mutation on the interaction” value is recorded as “disrupting interaction”.

Another test covers variants of B1. The note with it: with rent1_human UPF1, Q92900. The source holds these as a separate data set.
Turning to R1176E, the “effect of a mutation on the interaction” value is reported as “decreasing interaction”.

In another test the parent is B1. The following applies: with rent1_human UPF1, Q92900. This is another data set of the same source.
For M1120E, the “effect of a mutation on the interaction” value is “decreasing interaction”.

Variants of B1 are the subject of another test. The note with it: with rent1_human UPF1, Q92900. This is another data set of the same source.
E1123R: the “effect of a mutation on the interaction” value is given as “decreasing interaction”.
